Experiment [1] addresses T1, rabbit actin (Cytoskeleton, catalog #AKL95) (rabbit, UniProt P68135 1-377). In words: pointed-end elongation of gelsolin–actin seeds (pyrene–actin) against emerin concentration; gelsolin–actin dimers (10 nM), 2 μM actin, 0 to 2 μM wild-type emerin 1–222; apparent Kd from the reduction of the rate; n = 12. The conditions noted are these: both partners purified.
For experiment [2], the target named is T1, rabbit actin (Cytoskeleton, catalog …). In words: pyrene–actin polymerization rate against emerin concentration; 2 μM rabbit actin with 5% pyrene–actin; emerin 0.1 to 4.4 μM added just prior to polymerization; R/cR; equilibrium affinity from activity. The conditions noted are these: both partners purified.
Experiment [3] concerns the target T2, purified actin (F-actin or G-actin; species not told for these experiments) ( (purified chicken and rabbit …, UniProt P68135 1-377). As to the kind of experiment: co-sedimentation; actin polymerized in KMEI buffer, incubated 30 min with recombinant emerin (4 μM in text and methods, 2 μM in the legend), pelleted at 100,000g for 1 h; SDS-PAGE, Coomassie blue. The following applies: both partners purified.

For experiment [4], the target named is T1, rabbit actin (Cytoskeleton, catalog …). In words: cell-based or functional assay.
For experiment [5] the target is unchanged. As to the kind of experiment: depolymerization of actin filaments grown from gelsolin–actin seeds against emerin concentration; filaments from 2 μM actin and gelsolin–actin seeds diluted 10-fold to 0.2 μM actin with 0–2 μM emerin 1–222; apparent Kd; n = 6. The conditions noted are these: both partners purified.
Experiment [6] addresses T2, purified actin (F-actin or G-actin; …). As to the kind of experiment: F-actin column (affinity determination); F-actin column used to determine the affinity of F-actin for emerin; n = 8. The conditions noted are these: both partners purified.

The results in this text go back to paper PMC509406, “Emerin Caps the Pointed End of Actin Filaments: Evidence for an Actin Cortical Network at the Nuclear Inner Membrane” (PLoS Biology, 2004).

Where “and” joins values, the source holds several entries; their conditions need not be identical. Equal values may be shown once. A value given as a limit tells only on which side of the number the result lay.

B1: wild-type emerin (residues 1–222), the full nucleoplasmic domain (domain or fragment)
chain: MDNYADLSDTELTTLLRRYNIPHGPVVGSTRRLYEKKIFEYETQRRRLSPPSSSAASSYSFSDLNSTRGDADMYDLPKKEDALLYQSKGYNDDYYEESYFTTRTYGEPESAGPSRAVRQSVTSFPDADAFHHQVHDDDLLSSSEEECKDRERPMYGRDSAYQSITHYRPVSASRSSLDLSYYPTSSSTSFMSSSSSSSSWLTRRAIRPENRAPGAGLGQDRQ
notes: emerin, residues 1–222, the entire nucleoplasmic domain, lacking the transmembrane domain; also called emr; WT; source: expressed in bacteria and purified
Consider B1, for which the Kd in experiment [1] was 0.43 µM and 0.3 to 0.5 µM. For the same molecule, the Kd in experiment [2] stood at 0.42 µM. Moreover, in experiment [3], the “stoichiometry N” value is ~300 actin monomers per emerin molecule. Also, in experiment [4], the “critical concentration for pointed-end growth (5 nM gelsolin–actin seeds, 625 nM emerin, 16 h at room temperature)” value lay in the range of 2.3 to 2.7 fold; the “rate of depolymerization of filaments grown from gelsolin–actin seeds, diluted to 0.2 μM actin, emerin 0–2 μM” value is no more than 8 fold; the “rate of depolymerization of preformed filaments capped at the barbed end with capping protein (CapZ), diluted into 0.2 μM actin (data not shown)” value was 10 fold; the “rate of pyrene–actin polymerization (R/cR), emerin 0.1 to 4.4 μM, 2 μM actin” value is 4 fold. Besides, the Kd in experiment [5] is 0.38 µM and 0.35 to 0.45 µM. The Kd in experiment [6] is 0.48 µM and 0.3 to 0.5 µM.

B2: emerin (residues 1–222) alanine substitution mutant m196 (domain or fragment)
chain: MDNYADLSDTELTTLLRRYNIPHGPVVGSTRRLYEKKIFEYETQRRRLSPPSSSAASSYSFSDLNSTRGDADMYDLPKKEDALLYQSKGYNDDYYEESYFTTRTYGEPESAGPSRAVRQSVTSFPDADAFHHQVHDDDLLSSSEEECKDRERPMYGRDSAYQSITHYRPVSASRSSLDLSYYPTSSSTSFMSSSSAASSWLTRRAIRPENRAPGAGLGQDRQ
For B2, the “rate of pyrene–actin polymerization, 1 μM mutant, 2.0 μM G-actin, against wild-type emerin” value in experiment [4] was ~50 % of wild-type emerin.
